Test results as given in patent US7592006 (UNIVERSIT CATHOLIQUE DE LOUVAIN, dated 2009).
Values belong to the molecule of their own block, whether it stands above or below them.

What was measured:
[1] = target: T1, human CD2 (human, UniProt P06729 25-351); test: two color flow cytometry on human PBMC, biotinylated LO-CD2a and Leu-5bPE; Y axis (FL2) taken as Leu-5b-PE, inferred
T1 construct: whole, on cells; The plasmid is cited from Peterson and Seed, Nature 1987; also called CD2 antigen; wild-type CD2
T1 sequence (looked up): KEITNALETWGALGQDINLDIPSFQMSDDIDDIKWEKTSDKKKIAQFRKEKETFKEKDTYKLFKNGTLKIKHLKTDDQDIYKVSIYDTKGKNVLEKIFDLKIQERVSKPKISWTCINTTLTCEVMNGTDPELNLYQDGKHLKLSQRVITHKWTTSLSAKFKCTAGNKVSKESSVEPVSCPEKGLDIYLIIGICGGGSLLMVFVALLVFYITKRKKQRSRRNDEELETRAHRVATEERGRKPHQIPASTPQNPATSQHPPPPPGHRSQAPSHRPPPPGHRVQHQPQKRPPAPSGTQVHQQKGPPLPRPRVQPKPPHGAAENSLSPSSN

[2] = target: T1, human CD2; test: two color flow cytometry on human PBMC, biotinylated LO-CD2a and Leu-5bPE; upper left quadrant taken as Leu-5b-PE positive, LO-CD2a below the quadrant limit (axes inferred: X = FL1 LO-CD2a, Y = FL2 Leu-5b-PE)
[3] = target: T1, human CD2; test: flow cytometry on CD2-expressing Jurkat cells, 0 to 4 µg/ml antibody (FIG. 35)
Method: Transient expression in COS cells and detection of secreted antibody were carried out as described previously for the chimeric antibody. The humanized antibody was purified by affinity chromatography (Protein A). […] The Jurkat cell line, which expresses CD2, was stained with rat LO-CD2a, the humanized LO-CD2a (LO-CD2aHu), or rat IgG2b or human IgG controls. Antibody concentrations ranged from 0 to 4 ig/ml. […] Bound antibodies were detected with an isotype-specific FITC-conjugated antisera. The results shown in FIG. 35 are expressed as the percentage of cells positively stained by the antibodies over the range of concentrations mentioned hereinabove. Functional studies indicate that the humanized antibody is also capable of inhibiting a primary MLR. Nanogram quantities of LO-CD2a, LO-CD2aHu, rat IgG2b control, or human IgG1 control were added to culture wells containing equivalent numbers of human peripheral blood mononuclear cells (PBMC) from a designated responder and stimulator (irradiated cells). Control wells contained no antibody. The cultures were incubated for 5 days, then pulsed overnight with tritiated thymidine. (3HT). Proliferation is detected by the uptake of 3HT. The results, as given in Table 3 below, are expressed as the mean CPM as recorded by a Beta plate reader.

Y MEAN fluorescence (quadrant 1UL) [1]: 285
Y MEAN fluorescence (quadrant 2UR) [1]: 631
Y MEAN fluorescence (quadrant 4LR) [1]: 6.54
% GATED (quadrant 1UL) [2]: 23.2%
Molecule: Leu-5b, mouse anti-human CD2 monoclonal antibody (Becton Dickinson)

binding result [3]: binds
B1: humanized LO-CD2a (antibody, V domains shown)
VH: QVQLVQSGAEVKKPGASVKVSCKASGYTFTEYYMYWVRQAPGQGLELMGRIDPEDGSIDYVEKFKKKVTLTADTSSSTAYMELSSLTSDDTAVYYCARGKFNYRFAYWGQGTLVTVSS
VL: DVVMTQSPPSLLVTLGQPASISCRSSQSLLHSSGNTYLNWLLQRPGQSPQPLIYLVSKLESGVPDRFSGSGSGTDFTLKISGVEAEDVGVYYCMQFTHYPYTFGQGTKLEIK
notes: Variable regions were cloned into the MRC light (human kappa) and heavy (human gamma 1) chain vectors; Expressed in COS cells and purified on Protein A; also called LO-CD2aHu; humanized antibody
